Experimental data published in the supplement of paper PMC11246515.
± gives the standard deviation of the averaged measurements.

Experiment: total protein half-life in vivo (active degradation + dilution); higher = more stable protein
[1] = E. coli NCM3722 delta-clpP delta-lon delta-hslV, growth: N-lim chemostat, doubling time 6 h
[2] = E. coli NCM3722 delta-clpP, growth: N-lim chemostat, doubling time 6 h
[3] = E. coli NCM3722 delta-hslV, growth: N-lim chemostat, doubling time 6 h
[4] = E. coli NCM3722 delta-lon, growth: N-lim chemostat, doubling time 6 h
[5] = E. coli NCM3722 delta-smpB, growth: N-lim chemostat, doubling time 6 h
[6] = wild type E. coli NCM3722, growth: C-lim chemostat, doubling time 3 h
[7] = wild type E. coli NCM3722, growth: C-lim chemostat, doubling time 6 h
[8] = wild type E. coli NCM3722, growth: C-lim chemostat, doubling time 12 h
[9] = wild type E. coli NCM3722, growth: N-lim chemostat, doubling time 6 h
[10] = wild type E. coli NCM3722, growth: N-lim chemostat, doubling time 12 h
[11] = wild type E. coli NCM3722, growth: P-lim chemostat, doubling time 6 h
[12] = wild type E. coli NCM3722, growth: P-lim chemostat, doubling time 12 h

Sequence	total protein half-life in vivo [1]	total protein half-life in vivo [2]	total protein half-life in vivo [3]	total protein half-life in vivo [4]	total protein half-life in vivo [5]	total protein half-life in vivo [6]	total protein half-life in vivo [7]	total protein half-life in vivo [8]	total protein half-life in vivo [9]	total protein half-life in vivo [10]	total protein half-life in vivo [11]	total protein half-life in vivo [12]
MSSLQILQGTFRLSDTKTLQLPQLTLNAGDSWAFVGSNGSGKSALARALAGELPLLKGERQSQFSHITRLSFEQLQKLVSDEWQRNNTDMLGPGEDDTGRTTAEIIQDEVKDAPRCMQLAQQFGITALLDRRFKYLSTGETRKTLLCQALMSEPDLLILDEPFDGLDVASRQQLAERLASLHQSGITLVLVLNRFDEIPEFVQFAGVLADCTLAETGAKEELLQQALVAQLAHSEQLEGVQLPEPDEPSARHALPANEPRIVLNNGVVSYNDRPILNNLSWQVNPGEHWQIVGPNGAGKSTLLSLVTGDHPQGYSNDLTLFGRRRGSGETIWDIKKHIGYVSSSLHLDYRVSTTVRNVILSGYFDSIGIYQAVSDRQQKLVQQWLDILGIDKRTADAPFHSLSWGQQRLALIVRALVKHPTLLILDEPLQGLDPLNRQLIRRFVDVLISEGETQLLFVSHHAEDAPACITHRLEFVPDGGLYRYVLTKIY	4.48 ± 0.27 h	4.73 ± 1.6 h	3.5748 ± 0.0019 h	4.54 ± 0.7 h	4 ± 0.68 h	2.84 ± 0.087 h	5.233 ± 0.03 h	9.21 ± 0.47 h	3.942 ± 0.016 h	5.56 ± 0.14 h	5.68 ± 0.2 h	12 ± 0.93 h
MSSLSQAASSVEKRTNARYWIVVMLFIVTSFNYGDRATLSIAGSEMAKDIGLDPVGMGYVFSAFSWAYVIGQIPGGWLLDRFGSKRVYFWSIFIWSMFTLLQGFVDIFSGFGIIVALFTLRFLVGLAEAPSFPGNSRIVAAWFPAQERGTAVSIFNSAQYFATVIFAPIMGWLTHEVGWSHVFFFMGGLGIVISFIWLKVIHEPNQHPGVNKKELEYIAAGGALINMDQQNTKVKVPFSVKWGQIKQLLGSRMMIGVYIGQYCINALTYFFITWFPVYLVQARGMSILKAGFVASVPAVCGFIGGVLGGIISDWLMRRTGSLNIARKTPIVMGMLLSMVMVFCNYVNVEWMIIGFMALAFFGKGIGALGWAVMADTAPKEISGLSGGLFNMFGNISGIVTPIAIGYIVGTTGSFNGALIYVGVHALIAVLSYLVLVGDIKRIELKPVAGQ	–	–	–	–	–	–	5.06 h	–	–	–	–	–
MSSNTFTLGTKSVNRLGYGAMQLAGPGVFGPPRDRHVAITVLREALALGVNHIDTSDFYGPHVTNQIIREALYPYSDDLTIVTKIGARRGEDASWLPAFSPAELQKAVHDNLRNLGLDVLDVVNLRVMMGDGHGPAEGSIEASLTVLAEMQQQGLVKHIGLSNVTPTQVAEARKIAEIVCVQNEYNIAHRADDAMIDALAHDGIAYVPFFPLGGFTPLQSSTLSDVAASLGATPMQVALAWLLQRSPNILLIPGTSSVAHLRENMAAEKLHLSEEVLSTLDGISRE	5.35 ± 0.76 h	4.8 ± 0.14 h	4.87 h	4.74 ± 1 h	4.18 ± 0.88 h	3.27 ± 0.3 h	5.527 ± 0.039 h	10.8 ± 0.75 h	5.01 h	8.77 h	6.443 ± 0.061 h	12.2 ± 0.21 h
MSSRKELANAIRALSMDAVQKAKSGHPGAPMGMADIAEVLWRDFLKHNPQNPSWADRDRFVLSNGHGSMLIYSLLHLTGYDLPMEELKNFRQLHSKTPGHPEVGYTAGVETTTGPLGQGIANAVGMAIAEKTLAAQFNRPGHDIVDHYTYAFMGDGCMMEGISHEVCSLAGTLKLGKLIAFYDDNGISIDGHVEGWFTDDTAMRFEAYGWHVIRDIDGHDAASIKRAVEEARAVTDKPSLLMCKTIIGFGSPNKAGTHDSHGAPLGDAEIALTREQLGWKYAPFEIPSEIYAQWDAKEAGQAKESAWNEKFAAYAKAYPQEAAEFTRRMKGEMPSDFDAKAKEFIAKLQANPAKIASRKASQNAIEAFGPLLPEFLGGSADLAPSNLTLWSGSKAINEDAAGNYIHYGVREFGMTAIANGISLHGGFLPYTSTFLMFVEYARNAVRMAALMKQRQVMVYTHDSIGLGEDGPTHQPVEQVASLRVTPNMSTWRPCDQVESAVAWKYGVERQDGPTALILSRQNLAQQERTEEQLANIARGGYVLKDCAGQPELIFIATGSEVELAVAAYEKLTAEGVKARVVSMPSTDAFDKQDAAYRESVLPKAVTARVAVEAGIADYWYKYVGLNGAIVGMTTFGESAPAELLFEEFGFTVDNVVAKAKELL	3.63 ± 0.31 h	3.35 ± 0.19 h	3.03 ± 0.057 h	3.47 ± 0.1 h	3.033 ± 0.021 h	3.22 ± 0.077 h	5.19 ± 0.23 h	9.96 ± 0.12 h	3.15 ± 0.11 h	4.48 ± 0.056 h	5.65 ± 0.089 h	10.7 ± 0.21 h
MSTFKPLKTLTSRRQVLKAGLAALTLSGMSQAIAKDELLKTSNGHSKPKAKKSGGKRVVVLDPGHGGIDTGAIGRNGSKEKHVVLAIAKNVRSILRNHGIDARLTRSGDTFIPLYDRVEIAHKHGADLFMSIHADGFTNPKAAGASVFALSNRGASSAMAKYLSERENRADEVAGKKATDKDHLLQQVLFDLVQTDTIKNSLTLGSHILKKIKPVHKLHSRNTEQAAFVVLKSPSVPSVLVETSFITNPEEERLLGTAAFRQKIATAIAEGVISYFHWFDNQKAHSKKR	5.02 ± 0.67 h	5.75 ± 0.35 h	4.89 ± 0.52 h	4.977 ± 0.029 h	4.41 ± 0.32 h	2.23 ± 0.033 h	3.5509 ± 0.0011 h	5 ± 0.2 h	5.08 ± 0.94 h	8.42 ± 0.29 h	4.48 ± 0.47 h	8.52 ± 0.41 h
MSTIEERVKKIIGEQLGVKQEEVTNNASFVEDLGADSLDTVELVMALEEEFDTEIPDEEAEKITTVQAAIDYINGHQA [P0A6A8]	7.12 ± 0.32 h	5.957 ± 0.032 h	5.79 ± 0.28 h	7.19 ± 0.17 h	4.78 ± 1.6 h	3.14 ± 0.069 h	4.95 ± 1.3 h	8.88 ± 0.96 h	4 ± 0.13 h	–	5 ± 1.2 h	10.8 ± 0.47 h
